We go through 2 molecules from patent publication US20200268901A1 (Bristol-Myers Squibb, published 2020).

Where “and” joins values, the source holds several entries; their conditions need not be identical. Equal entries are not always repeated. Where two headings read alike, the source gives them in different places.

The target of assay [1] is T1, human CD73 on Calu6 cells (human, UniProt P21589 27-549).
T1 sequence (looked up): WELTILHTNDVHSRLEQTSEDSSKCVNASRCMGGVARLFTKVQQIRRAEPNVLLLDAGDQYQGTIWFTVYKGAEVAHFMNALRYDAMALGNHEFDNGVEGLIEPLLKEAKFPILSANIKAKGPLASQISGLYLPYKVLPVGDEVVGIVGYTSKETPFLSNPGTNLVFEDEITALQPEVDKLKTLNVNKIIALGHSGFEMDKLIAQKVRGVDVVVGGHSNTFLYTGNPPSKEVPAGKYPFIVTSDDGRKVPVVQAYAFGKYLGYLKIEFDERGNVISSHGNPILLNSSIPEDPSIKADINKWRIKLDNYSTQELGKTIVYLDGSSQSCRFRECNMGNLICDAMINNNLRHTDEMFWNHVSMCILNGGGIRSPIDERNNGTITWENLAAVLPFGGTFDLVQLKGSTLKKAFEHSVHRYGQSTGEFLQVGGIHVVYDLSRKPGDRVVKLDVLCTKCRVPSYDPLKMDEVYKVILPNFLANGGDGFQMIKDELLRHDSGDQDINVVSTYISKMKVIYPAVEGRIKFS
Kind of assay: cell-based or functional assay.

Assay [2] has as its target T1, human CD73 on Calu6 cells. In words: cell-based or functional assay. This is another data set of the same source.
Assay [3] addresses T2, hCD73-his (full length extracellular domain of human CD73, residues 26-546, C-terminal polyhistidine tag) (human, UniProt P21589 26-546).
T2 construct: range 26-546; not shown: C-terminal polyhistidine tag
T2 sequence (looked up): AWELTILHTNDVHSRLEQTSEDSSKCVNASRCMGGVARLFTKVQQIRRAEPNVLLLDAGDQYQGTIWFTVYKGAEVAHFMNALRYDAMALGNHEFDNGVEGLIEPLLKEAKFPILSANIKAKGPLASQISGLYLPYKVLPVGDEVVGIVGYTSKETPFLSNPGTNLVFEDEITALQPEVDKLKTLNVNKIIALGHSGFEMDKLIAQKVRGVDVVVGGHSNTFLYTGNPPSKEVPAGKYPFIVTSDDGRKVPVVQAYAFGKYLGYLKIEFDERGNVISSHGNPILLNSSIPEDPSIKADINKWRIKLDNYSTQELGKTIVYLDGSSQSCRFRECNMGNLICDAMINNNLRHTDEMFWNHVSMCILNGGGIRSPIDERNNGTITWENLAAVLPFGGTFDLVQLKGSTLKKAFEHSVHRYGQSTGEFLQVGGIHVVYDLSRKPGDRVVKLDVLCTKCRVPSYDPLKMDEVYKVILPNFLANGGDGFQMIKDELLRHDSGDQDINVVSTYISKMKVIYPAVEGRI
Kind of assay: SEC, 5.5 uM each; peak 4: free mAb. On the procedure: (§1) Isocratic separations were performed on a Shodex PROTEIN KW-803 column connected to an Prominence Shimadzu UFLC in buffer containing 200 mM K₂HPO₄, 150 mM NaCl, pH 6.8, containing 0.02% Na azide (0.1 μm filtered) running at 0.5 mL/min. Samples were injected onto the column using a SIL-20AC Prominence Shimadzu autosampler, and data were obtained from three online detectors connected in series: a Prominence SPD-20AD diode array UV/vis spectrophotometer followed by a Wyatt miniDAWN™ TREOS Multi-Angle Light Scattering Detector then a Wyatt Optilab T-rEX Refractive Index Detector. Data were collected and analyzed using Astra (Wyatt) and Labsolutions (Shimadzu) software.
(§2) CD73.4 antibodies having the heavy chain constant regions set forth in Table 14 were also tested for formation of high molecular weight complexes by SEC-MALS and DLS experiments, as described in Example 3.
(In gel filtration, larger molecules generally elute earlier.)

Assay [4] concerns the target T1, human CD73 on Calu6 cells. In words: cell-based or functional assay. This is another data set of the same source.
Assay [5] concerns the target T2, hCD73-his (full length extracellular …). Kind of assay: SEC, 5.5 uM each; peak 1: complexes larger than 4:4. On the procedure:
as §1, with “The oligomeric state of CD73/antibody complexes were examined by size-exclusion chromatography coupled to an in-line multi-angle light scattering detector (SEC-MALS). Isocratic” for “Isocratic”
as §2

The target is the same in assay [6]. Kind of assay: SEC, 5.5 uM each; peak 3: about 1:1 complexes. On the procedure:
as §1, with “The oligomeric state of CD73/antibody complexes were examined by size-exclusion chromatography coupled to an in-line multi-angle light scattering detector (SEC-MALS). Isocratic” for “Isocratic”
as §2

The target is the same in assay [7]. In words: SEC, 5.5 uM each; peak 2: about 2:2 complexes. How it is done:
as §1, with “The oligomeric state of CD73/antibody complexes were examined by size-exclusion chromatography coupled to an in-line multi-angle light scattering detector (SEC-MALS). Isocratic” for “Isocratic”
as §2

B1: CD73.4-IgG2-C219S (antibody)
heavy: QVQLVESGGGVVQPGRSLRLSCAASGFTFSNYGMHWVRQAPGKGLEWVAVILYDGSNKYYPDSVKGRFTISRDNSKNTLYLQMNSLRAEDTAVYYCARGGSSWYPDSFDIWGQGTMVTVSSASTKGPSVFPLAPCSRSTSESTAALGCLVKDYFPEPVTVSWNSGALTSGVHTFPAVLQSSGLYSLSSVVTVPSSNFGTQTYTCNVDHKPSNTKVDKTVERKSCVECPPCPAPPVAGPSVFLFPPKPKDTLMISRTPEVTCVVVDVSHEDPEVQFNWYVDGVEVHNAKTKPREEQFNSTFRVVSVLTVVHQDWLNGKEYKCKVSNKGLPAPIEKTISKTKGQPREPQVYTLPPSREEMTKNQVSLTCLVKGFYPSDIAVEWESNGQPENNYKTTPPMLDSDGSFFLYSKLTVDKSRWQQGNVFSCSVMHEALHNHYTQKSLSLSPG
light: not shown
notes: anti-CD73; also called CD73.4-IgG2.3; CD73.4-IgG2CS
Turning to B1, in assay [1], the “T1/2 (hr) of CD73 internalization, Calu6 cells” value (“T1/2 (hr) … Calu6 cells” below) was 0.372 h and 0.364 h; the “T1/2 (hr) of CD73 internalization, NCI-H292 cells” value (“T1/2 (hr) … NCI-H292 cells” for short) is 0.287 h and 0.284 h. In assay [2], the “T1/2 (hr) … Calu6 cells” value turned out to be 0.6 h; the “T1/2 (hr) … NCI-H292 cells” value was determined as 0.277 h; the “Ymax (%) of CD73 internalization, Calu6 cells” value was found to be 75.6%; the “Ymax (%) of CD73 internalization, NCI-H292 cells” value is 78.4%. Moreover, the “UV % Peak4 (16.7-19.3 min)” value in assay [3] worked out at 28.6%. Also, in assay [4], the “% internalization, Calu6 cells” value amounted to 88%; the “% internalization, H228 cells” value came out at 94%; the “% internalization, H2030 cells” value was found to be 89%; the “% internalization, HCC15 cells” value is 94%. For the same molecule, in assay [4], the “T1/2 min of internalization, Calu6 cells” value came to 6.5 min; the “T1/2 min of internalization, H228 cells” value came out at 13.8 min; the “T1/2 min of internalization, H2030 cells” value came out at 3.7 min; the “T1/2 min of internalization, HCC15 cells” value came out at 3.1 min. Also, the “UV % Peak1 (<12.9 min)” value in assay [5] turned out to be 37%. For the same molecule, the “UV % Peak3 (15.1-16.7 min)” value in assay [6] came to 7.7%.

B2: CD73.4-IgG2.3-plusGGG (antibody)
heavy: QVQLVESGGGVVQPGRSLRLSCAASGFTFSNYGMHWVRQAPGKGLEWVAVILYDGSNKYYPDSVKGRFTISRDNSKNTLYLQMNSLRAEDTAVYYCARGGSSWYPDSFDIWGQGTMVTVSSASTKGPSVFPLAPCSRSTSESTAALGCLVKDYFPEPVTVSWNSGALTSGVHTFPAVLQSSGLYSLSSVVTVPSSNFGTQTYTCNVDHKPSNTKVDKTVERKSCVEGGGCPPCPAPPVAGPSVFLFPPKPKDTLMISRTPEVTCVVVDVSHEDPEVQFNWYVDGVEVHNAKTKPREEQFNSTFRVVSVLTVVHQDWLNGKEYKCKVSNKGLPAPIEKTISKTKGQPREPQVYTLPPSREEMTKNQVSLTCLVKGFYPSDIAVEWESNGQPENNYKTTPPMLDSDGSFFLYSKLTVDKSRWQQGNVFSCSVMHEALHNHYTQKSLSLSPGK
light: not shown
Regarding B2, in assay [7], the “UV % Peak2 (12.9-15.1 min)” value is 23.9%. In assay [1], the “T1/2 (hr) … Calu6 cells” value was found to be 0.336 h; the “T1/2 (hr) … NCI-H292 cells” value came out at 0.271 h; the “Ymax (%) of CD73 internalization, Calu6 cells” value turned out to be 81.7%; the “Ymax (%) of CD73 internalization, NCI-H292 cells” value stood at 91.6%. In addition, the “UV % Peak4 (16.7-19.3 min)” value in assay [3] worked out at 34.9%. In addition, the “UV % Peak1 (<12.9 min)” value in assay [5] came out at 30%.
